Test results taken from article PMC12670400, “LEKTI-Grafted Sunflower Trypsin Inhibitor: A Potential Therapeutic for Skin Diseases” (Journal of Medicinal Chemistry, 2025).
Bridge positions count the residues as written; N and C are the ends. Ends that are not written are not given here.

Key:
[1] = test system: KLK5-mediated PAR2 activation; test: PAR2-dependent intracellular calcium mobilization assay in N/TERT keratinocytes; format: cell-based; conditions: peptide 400 μM
Text: PAR2, a member of the G-protein-coupled receptor family expressed in keratinocytes, is a known downstream target of KLK5. KLK5 activates PAR2 by cleaving its extracellular N-terminal domain. This cleavage exposes a tethered ligand, which binds PAR2 intramolecularly to activate the receptor. , Activated PAR2 causes protein kinase C (PKC) and inositol 1,4,5-trisphosphate (IP3) activation, leading to calcium release from the endoplasmic reticulum, known as intracellular calcium mobilization. […] This delay is attributed to the time required for KLK5 to enzymatically cleave the extracellular N-terminal domain of PAR2, thereby exposing the tethered ligand sequence necessary to initiate receptor activation and downstream calcium signaling. […] This observation confirmed PAR2-dependent calcium mobilization and that rKLK5 could initiate PAR2 activation. The inhibition potential of lead 7 on KLK5 activity was then assessed by using this assay. rKLK5 was preincubated with lead 7 at concentrations of 2.5, 5, 20, or 40 μM for one hour before being applied to cultured keratinocytes, after which PAR2-dependent calcium mobilization was measured.
For Ki calculation, Km values for KLK5 and its substrate Boc-VPR-AMC were previously reported in the literature 8, 9, allowing the conversion from IC50 to Ki using the Cheng Prusoff equation10 Kᵢ = IC₅₀ / (1 + [S]/Kₘ) for single-site competitive binding.
Cell lines and tissue cultures
Keratinocytes isolated from the skin in a patient with genetic skin disease Netherton Syndrome (NS19) and in healthy donors (C42, C46, P8) were used in the study. […]
The immortalized keratinocyte cell line (N/TERT)13, 14 were used for the assay. […] The cells were counted, and 100 µL of the suspension, at a density of 600,000 cells/mL, was seeded into each well of a 96 -well microplate. […]
calcium signalling. […] Fluorescence excitation was set at 485 nm, and emission was recorded at 520 nm using SpectraMax® i3x plate reader. […]

KLK7 [2] = molecular target: T1, KLK7 (Homo sapiens, UniProt P49862); set-up: purchased R&D Systems 2624-SE; conditions: read-out: Ki against KLK7; cited from earlier work
Target sequence in this assay (P49862 30-253): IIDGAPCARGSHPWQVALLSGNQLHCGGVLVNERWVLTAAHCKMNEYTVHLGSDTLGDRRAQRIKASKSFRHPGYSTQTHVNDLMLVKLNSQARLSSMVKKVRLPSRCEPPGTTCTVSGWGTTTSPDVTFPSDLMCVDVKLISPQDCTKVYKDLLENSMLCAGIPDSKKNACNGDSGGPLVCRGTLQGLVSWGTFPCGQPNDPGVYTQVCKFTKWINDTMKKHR

KLK14 = molecular target: T2, KLK14 (UniProt Q9P0G3); test: enzyme inhibition assay (fluorogenic substrate); selectivity: inhibition of KLK7, KLK8 or KLK14 activity by the peptide, n = 3; substrates and conditions in the Supporting Information
T2 sequence (Q9P0G3 41-267, species assumed, looked up): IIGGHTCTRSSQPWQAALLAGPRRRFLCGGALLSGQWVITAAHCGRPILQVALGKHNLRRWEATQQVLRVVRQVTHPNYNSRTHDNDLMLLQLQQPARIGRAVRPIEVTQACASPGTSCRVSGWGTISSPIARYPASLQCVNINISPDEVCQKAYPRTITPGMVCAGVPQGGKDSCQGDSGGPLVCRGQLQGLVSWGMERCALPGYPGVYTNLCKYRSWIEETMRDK

KLK7 [3] = molecular target: T1, KLK7; test: as above
[4] = molecular target: T3, Kallikrein-related peptidase 5 (KLK5) (UniProt Q9Y337 23-293); test: enzyme inhibition assay (fluorogenic substrate); inhibition of KLK5 activity by the peptide, fluorogenic substrate Boc-VPR-AMC, n = 3; conditions in the Supporting Information; conditions: both partners purified
[5] = molecular target: T3, Kallikrein-related peptidase 5 (KLK5); test: as above; conditions: both partners purified; remark: listed apart in the source
KLK8 = molecular target: T4, KLK8 (UniProt O60259 33-260); test: enzyme inhibition assay (fluorogenic substrate); selectivity: inhibition of KLK7, KLK8 or KLK14 activity by the peptide, n = 3; substrates and conditions in the Supporting Information; conditions: both partners purified
T4 construct: Kallikrein 8 (KLK8); construct and source are in the Supporting Information
T4 sequence (looked up): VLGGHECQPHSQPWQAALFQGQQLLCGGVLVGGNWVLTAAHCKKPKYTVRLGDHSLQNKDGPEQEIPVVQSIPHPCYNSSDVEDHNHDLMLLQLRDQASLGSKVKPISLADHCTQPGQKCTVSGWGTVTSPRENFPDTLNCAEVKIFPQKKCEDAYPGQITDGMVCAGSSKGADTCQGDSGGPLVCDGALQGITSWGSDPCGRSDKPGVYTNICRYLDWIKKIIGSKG

KLK5 = molecular target: T5, KLK5 (Homo sapiens, UniProt Q9Y337); conditions: prior findings, reference not given; read-out: Ki against KLK5; cited from earlier work
T5 construct: purchased R&D Systems 1108-SE
T5 sequence (Q9Y337 23-293): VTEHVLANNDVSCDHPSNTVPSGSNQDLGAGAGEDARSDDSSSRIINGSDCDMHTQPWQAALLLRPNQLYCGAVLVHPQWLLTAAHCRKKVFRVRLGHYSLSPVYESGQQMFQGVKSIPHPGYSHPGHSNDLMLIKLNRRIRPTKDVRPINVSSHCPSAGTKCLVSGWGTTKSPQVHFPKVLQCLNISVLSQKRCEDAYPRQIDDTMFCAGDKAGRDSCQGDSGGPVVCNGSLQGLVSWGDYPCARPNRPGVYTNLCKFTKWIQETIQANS

## LRGILS-NH2 [R-AP, reference compound]
[1]
  calcium mobilization on stimulation of keratinocytes: did not induce calcium mobilization

## SLIGRL-NH2 [AP, reference compound]
[1]
  calcium mobilization on stimulation of keratinocytes: PAR2-dependent calcium mobilization was observed

## α1-antichymotrypsin [reference compound]
KLK7 [2]
  Ki: 500 nM

B1: LEKTI-grafted SFTI analogue, lead 7 (peptide)
peptide: cyclo(GFCTRSNPPECWPN)
modifications: disulfide 3-11 (inferred)
notes: SFTI scaffold grafted with residues of a LEKTI domain, glutamic acid at position 10; source: synthetic peptide (hydrazide peptide, cyclised via native chemical ligation, oxidised, RP-HPLC purified)
KLK14
  IC50: > 1000 nM
KLK7 [3]
  IC50: > 1000 nM
[4]
  Ki: 11 nM
[5]
  IC50: 14 ± 4 nM
KLK8
  IC50: > 1000 nM

B2: LEKTI Domain 5: domain 5 of the endogenous serine protease inhibitor LEKTI (protein)
chain: REIVKLCSQYQNQAKNGILFCTRENDPIRGPDGKMHGNLCSMCQAYFQAENEEKKKAEARAR
modifications: Kazal-type disulfides
KLK5
  Ki: 32.8 nM

B3: LEKTI Domain 6: domain 6 of the endogenous serine protease inhibitor LEKTI (protein)
chain: ESGKATSYAELCNEYRKLVRNGKLACTRENDPIQGPDGKVHGNTCSMCEVFFQAEEEEKKKKEGESRN
modifications: Kazal-type disulfides
KLK5
  Ki: 83.3 nM

B4: SFTI analogue 8 (peptide)
peptide: cyclo(GFCHRSYPPECWPN)
modifications: disulfide 3-11 (inferred)
notes: SFTI scaffold grafted with residues of a LEKTI or LEKTI-like domain, glutamic acid at position 10; also called compound 8; source: synthetic peptide (hydrazide peptide, cyclised via native chemical ligation, oxidised, RP-HPLC purified)
KLK7 [3]
  IC50: > 1000 nM
[4]
  Ki: 8 nM
[5]
  IC50: 8.6 ± 2 nM
KLK8
  IC50: > 1000 nM
